Molecular target: T1, AP2-HC D1 (Plasmodium falciparum, UniProt Q8IKR9 1316-1374)
T1 sequence: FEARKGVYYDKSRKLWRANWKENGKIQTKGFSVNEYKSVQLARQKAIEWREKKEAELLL
Assay: gcPBM; about 25 ug protein; PBS, 1% milk, 0.2 mg/ml BSA, salmon testes DNA, 0.03% Triton X-100
Conditions: tags: N-terminal GST (pGEX-4T-1), kept; label: surface-attached array probe

B1: CACACA_site1963 (dsDNA)
DNA 1: AACTTGTATATATACACACACACACTGTCTTTTTTT
DNA 2: AAAAAAAGACAGTGTGTGTGTGTATATATACAAGTT
binding signal: 10.5 ln median PBM intensity, better of two orientations

B2: CACACA_site4006 (dsDNA)
DNA 1: ATAAGGAAGGGATGCACACAAAAGGGTACATAAGAA
DNA 2: TTCTTATGTACCCTTTTGTGTGCATCCCTTCCTTAT
binding signal: 10.5 ln median PBM intensity, better of two orientations

B3: CACACA_site2432 (dsDNA)
DNA 1: CAAACCCACCAACACACACACACAAAAATGATTAAA
DNA 2: TTTAATCATTTTTGTGTGTGTGTGTTGGTGGGTTTG
binding signal: 10.5 ln median PBM intensity, better of two orientations

B4: CACACA_site498 (dsDNA)
DNA 1: TACACCCACCAACACACACACACACCCAAAAAAAAA
DNA 2: TTTTTTTTTGGGTGTGTGTGTGTGTTGGTGGGTGTA
binding signal: 10.5 ln median PBM intensity, better of two orientations

B5: CACACA_site7567 (dsDNA)
DNA 1: TGCAACAAAATAAACACACACACACTAACACAAAAA
DNA 2: TTTTTGTGTTAGTGTGTGTGTGTTTATTTTGTTGCA
binding signal: 10.5 ln median PBM intensity, better of two orientations

B6: CACACA_site8256 (dsDNA)
DNA 1: AAATAAAGCACACCGACACACACATATATATATATA
DNA 2: TATATATATATATGTGTGTGTCGGTGTGCTTTATTT
binding signal: 10.4 ln median PBM intensity, better of two orientations

B7: CACACA_site7641 (dsDNA)
DNA 1: TACATACACAGACACACACACATATAAATATAAATA
DNA 2: TATTTATATTTATATGTGTGTGTGTCTGTGTATGTA
binding signal: 10.4 ln median PBM intensity, better of two orientations

B8: CACACA_site7791 (dsDNA)
DNA 1: AAAATTAACCGTAACACACACACATATAAATATGTA
DNA 2: TACATATTTATATGTGTGTGTGTTACGGTTAATTTT
binding signal: 10.4 ln median PBM intensity, better of two orientations

B9: CACACA_site4316 (dsDNA)
DNA 1: TGAATAAATCAAAGCACACATACACAGACATATATA
DNA 2: TATATATGTCTGTGTATGTGTGCTTTGATTTATTCA
binding signal: 10.4 ln median PBM intensity, better of two orientations

B10: CACACA_site8083 (dsDNA)
DNA 1: AAAAAAAAAAAAAAAACACACACATGCACATCATAT
DNA 2: ATATGATGTGCATGTGTGTGTTTTTTTTTTTTTTTT
binding signal: 10.4 ln median PBM intensity, better of two orientations

B11: CACACA_site1177 (dsDNA)
DNA 1: TTAATTTATAAAAACACACACAGGTAAAAAGGTGCA
DNA 2: TGCACCTTTTTACCTGTGTGTGTTTTTATAAATTAA
binding signal: 10.3 ln median PBM intensity, better of two orientations

B12: CACACA_site7688 (dsDNA)
DNA 1: AATATAAATAAAAACACACACAATGGTACCTATATA
DNA 2: TATATAGGTACCATTGTGTGTGTTTTTATTTATATT
binding signal: 10.3 ln median PBM intensity, better of two orientations

B13: CACACA_site9055 (dsDNA)
DNA 1: ATATATATATATATTGTACACACATTTATGCATATA
DNA 2: TATATGCATAAATGTGTGTACAATATATATATATAT
binding signal: 10.3 ln median PBM intensity, better of two orientations

B14: CACACA_site8866 (dsDNA)
DNA 1: CCGCCATTGTACCATCCACACACATATATATATGTA
DNA 2: TACATATATATATGTGTGTGGATGGTACAATGGCGG
binding signal: 10.3 ln median PBM intensity, better of two orientations

B15: CACACA_site6324 (dsDNA)
DNA 1: CATAAATCAGCCATAACACACATACCTATATACATA
DNA 2: TATGTATATAGGTATGTGTGTTATGGCTGATTTATG
binding signal: 10.3 ln median PBM intensity, better of two orientations

B16: CACACA_site4209 (dsDNA)
DNA 1: TATATATATGGACACACACACACCAAAGCGTAGCGC
DNA 2: GCGCTACGCTTTGGTGTGTGTGTGTCCATATATATA
binding signal: 10.3 ln median PBM intensity, better of two orientations

B17: CACACA_site7630 (dsDNA)
DNA 1: ATTATACACGCGCGCACACACAACAAAAAAAAAAAA
DNA 2: TTTTTTTTTTTTGTTGTGTGTGCGCGCGTGTATAAT
binding signal: 10.3 ln median PBM intensity, better of two orientations

B18: CACACA_site8848 (dsDNA)
DNA 1: ATATAAATTTTTTATGAACACACAAATACAGACACT
DNA 2: AGTGTCTGTATTTGTGTGTTCATAAAAAATTTATAT
binding signal: 10.3 ln median PBM intensity, better of two orientations

B19: CACACA_site8543 (dsDNA)
DNA 1: ATTAATATATAACGTGCACACACACCGTTACGTATG
DNA 2: CATACGTAACGGTGTGTGTGCACGTTATATATTAAT
binding signal: 10.3 ln median PBM intensity, better of two orientations

B20: CACACA_site6202 (dsDNA)
DNA 1: CTCATCCTTACATACACACACATATATTTATTTATA
DNA 2: TATAAATAAATATATGTGTGTGTATGTAAGGATGAG
binding signal: 10.2 ln median PBM intensity, better of two orientations

B21: CACACA_site1542 (dsDNA)
DNA 1: AATGTACAAATACGTACACACATATATATATATATA
DNA 2: TATATATATATATATGTGTGTACGTATTTGTACATT
binding signal: 10.2 ln median PBM intensity, better of two orientations

B22: CACACA_site65 (dsDNA)
DNA 1: CATGTAATATTAAACACACACTCATATAACACAATA
DNA 2: TATTGTGTTATATGAGTGTGTGTTTAATATTACATG
binding signal: 10.2 ln median PBM intensity, better of two orientations

B23: CACACA_site9385 (dsDNA)
DNA 1: AATATATGTTTAATTTCACACACAAATATACATTTT
DNA 2: AAAATGTATATTTGTGTGTGAAATTAAACATATATT
binding signal: 10.2 ln median PBM intensity, better of two orientations

B24: CACACA_site3184 (dsDNA)
DNA 1: TACTAAAACCCATACACACACATATATATAGTACCA
DNA 2: TGGTACTATATATATGTGTGTGTATGGGTTTTAGTA
binding signal: 10.2 ln median PBM intensity, better of two orientations

B25: CACACA_site6959 (dsDNA)
DNA 1: GTTTCCTTAATATTCACACACATATCTATAATATAT
DNA 2: ATATATTATAGATATGTGTGTGAATATTAAGGAAAC
binding signal: 10.2 ln median PBM intensity, better of two orientations

B26: CACACA_site7028 (dsDNA)
DNA 1: CATACATACATACATACACACATATATAAATATATG
DNA 2: CATATATTTATATATGTGTGTATGTATGTATGTATG
binding signal: 10.2 ln median PBM intensity, better of two orientations

B27: CACACA_site269 (dsDNA)
DNA 1: AAATAATTCAAAAAAACACACAAATTACAAAATAAA
DNA 2: TTTATTTTGTAATTTGTGTGTTTTTTTGAATTATTT
binding signal: 10.2 ln median PBM intensity, better of two orientations

B28: CACACA_site3383 (dsDNA)
DNA 1: ATATTAAACAAACACACACACATATATATATATATA
DNA 2: TATATATATATATATGTGTGTGTGTTTGTTTAATAT
binding signal: 10.2 ln median PBM intensity, better of two orientations

B29: CACACA_site5095 (dsDNA)
DNA 1: ACATCATTTTTATGTACACACACATATACGTTGAAT
DNA 2: ATTCAACGTATATGTGTGTGTACATAAAAATGATGT
binding signal: 10.2 ln median PBM intensity, better of two orientations

B30: CACACA_site1745 (dsDNA)
DNA 1: CACATACAGACATACACACATACACATATACGCATA
DNA 2: TATGCGTATATGTGTATGTGTGTATGTCTGTATGTG
binding signal: 10.2 ln median PBM intensity, better of two orientations

B31: CACACA_site5932 (dsDNA)
DNA 1: GCATTGTCCATGCGCACACACTACTAGAATAATATG
DNA 2: CATATTATTCTAGTAGTGTGTGCGCATGGACAATGC
binding signal: 10.2 ln median PBM intensity, better of two orientations

B32: CACACA_site1431 (dsDNA)
DNA 1: AAAAAAAAAAAAAATACACACAAATAATAAAAATAA
DNA 2: TTATTTTTATTATTTGTGTGTATTTTTTTTTTTTTT
binding signal: 10.1 ln median PBM intensity, better of two orientations

B33: CACACA_site9254 (dsDNA)
DNA 1: TTAATAAATATCAATACACACACACTAATGTGAATA
DNA 2: TATTCACATTAGTGTGTGTGTATTGATATTTATTAA
binding signal: 10.1 ln median PBM intensity, better of two orientations

B34: CACACA_site6756 (dsDNA)
DNA 1: ACAAATAAAAAAATTACACACATATAAAATATAGAT
DNA 2: ATCTATATTTTATATGTGTGTAATTTTTTTATTTGT
binding signal: 10.1 ln median PBM intensity, better of two orientations

B35: CACACA_site8859 (dsDNA)
DNA 1: ACGATGTTCATCACTACACACACAAAGAAATATATA
DNA 2: TATATATTTCTTTGTGTGTGTAGTGATGAACATCGT
binding signal: 10.1 ln median PBM intensity, better of two orientations

B36: CACACA_site8596 (dsDNA)
DNA 1: AATGTGTATATATATACACACACATATATATATTTT
DNA 2: AAAATATATATATGTGTGTGTATATATATACACATT
binding signal: 10.1 ln median PBM intensity, better of two orientations

B37: CACACA_site9374 (dsDNA)
DNA 1: TATAGAATAATCTATAAACACACAAACACAACAAAA
DNA 2: TTTTGTTGTGTTTGTGTGTTTATAGATTATTCTATA
binding signal: 10.1 ln median PBM intensity, better of two orientations

B38: CACACA_site1016 (dsDNA)
DNA 1: AAATAATGGTTAGCTACACACAAAGCATTTTTTGAA
DNA 2: TTCAAAAAATGCTTTGTGTGTAGCTAACCATTATTT
binding signal: 9.81 ln median PBM intensity, better of two orientations

B39: CACACA_site1501 (dsDNA)
DNA 1: TAATAATAATTATATACACACATGTATATTATATTT
DNA 2: AAATATAATATACATGTGTGTATATAATTATTATTA
binding signal: 9.81 ln median PBM intensity, better of two orientations

B40: CACACA_site2250 (dsDNA)
DNA 1: GAAAGAATAAAATTTACACACATATATATATACATA
DNA 2: TATGTATATATATATGTGTGTAAATTTTATTCTTTC
binding signal: 9.82 ln median PBM intensity, better of two orientations

B41: CACACA_site4030 (dsDNA)
DNA 1: AAGGAAATATAATATACACACATAAGTGTACTTATA
DNA 2: TATAAGTACACTTATGTGTGTATATTATATTTCCTT
binding signal: 9.82 ln median PBM intensity, better of two orientations

B42: CACACA_site8 (dsDNA)
DNA 1: TTTATAATTTATATCACACACATATATATATAGTAA
DNA 2: TTACTATATATATATGTGTGTGATATAAATTATAAA
binding signal: 9.83 ln median PBM intensity, better of two orientations

B43: CACACA_site8569 (dsDNA)
DNA 1: CTTTAATATTTTATTTCACACACATAAATGCCCCAA
DNA 2: TTGGGGCATTTATGTGTGTGAAATAAAATATTAAAG
binding signal: 9.84 ln median PBM intensity, better of two orientations

B44: CACACA_site1421 (dsDNA)
DNA 1: AAAAGTAACAAAGCTACACACATTTAAATAAACATA
DNA 2: TATGTTTATTTAAATGTGTGTAGCTTTGTTACTTTT
binding signal: 9.84 ln median PBM intensity, better of two orientations

Reference: paper PMC11417369, “DNA sequence and chromatin differentiate sequence-specific transcription factor binding in the human malaria parasite Plasmodium falciparum”
